Positions count from the first letter of the chain named.
Tests used:
[1] = target: T1, recombinant cyno C2a, C-terminal 6His-tag, made in house (CHO cell expression) (cynomolgus monkey, UniProt P06681 244-752 (human entry)); experiment: ELISA
T1 chain: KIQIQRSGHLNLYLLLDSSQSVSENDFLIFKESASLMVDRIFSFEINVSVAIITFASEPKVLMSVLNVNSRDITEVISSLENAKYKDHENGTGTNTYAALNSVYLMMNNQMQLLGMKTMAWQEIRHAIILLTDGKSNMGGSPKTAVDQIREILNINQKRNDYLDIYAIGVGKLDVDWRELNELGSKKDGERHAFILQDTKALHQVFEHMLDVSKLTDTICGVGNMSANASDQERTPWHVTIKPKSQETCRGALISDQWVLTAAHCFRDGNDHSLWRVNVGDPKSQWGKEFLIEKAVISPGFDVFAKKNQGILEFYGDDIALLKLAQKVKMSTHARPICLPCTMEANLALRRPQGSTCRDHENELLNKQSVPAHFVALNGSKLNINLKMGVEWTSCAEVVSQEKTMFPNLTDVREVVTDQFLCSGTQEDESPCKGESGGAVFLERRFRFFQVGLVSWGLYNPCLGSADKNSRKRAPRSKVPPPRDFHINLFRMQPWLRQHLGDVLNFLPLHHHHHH

[2] = target: T2, recombinant human C2a, C-terminal 6His-tag, made in house (CHO cell expression) (human, UniProt P06681 244-752); experiment: ELISA
T2 sequence: T1 chain with S18C, V68D, I73M, K84N, Q112R, K117E, Q148H

[3] = target: T3, recombinant human complement C2 (NP_000054.2), C-terminal 6His-tag, made in house (CHO cell expression) (human, UniProt P06681 21-752); experiment: ELISA
T3 construct: a linker before the tag is not described; also called human C2; Human C2
T3 sequence: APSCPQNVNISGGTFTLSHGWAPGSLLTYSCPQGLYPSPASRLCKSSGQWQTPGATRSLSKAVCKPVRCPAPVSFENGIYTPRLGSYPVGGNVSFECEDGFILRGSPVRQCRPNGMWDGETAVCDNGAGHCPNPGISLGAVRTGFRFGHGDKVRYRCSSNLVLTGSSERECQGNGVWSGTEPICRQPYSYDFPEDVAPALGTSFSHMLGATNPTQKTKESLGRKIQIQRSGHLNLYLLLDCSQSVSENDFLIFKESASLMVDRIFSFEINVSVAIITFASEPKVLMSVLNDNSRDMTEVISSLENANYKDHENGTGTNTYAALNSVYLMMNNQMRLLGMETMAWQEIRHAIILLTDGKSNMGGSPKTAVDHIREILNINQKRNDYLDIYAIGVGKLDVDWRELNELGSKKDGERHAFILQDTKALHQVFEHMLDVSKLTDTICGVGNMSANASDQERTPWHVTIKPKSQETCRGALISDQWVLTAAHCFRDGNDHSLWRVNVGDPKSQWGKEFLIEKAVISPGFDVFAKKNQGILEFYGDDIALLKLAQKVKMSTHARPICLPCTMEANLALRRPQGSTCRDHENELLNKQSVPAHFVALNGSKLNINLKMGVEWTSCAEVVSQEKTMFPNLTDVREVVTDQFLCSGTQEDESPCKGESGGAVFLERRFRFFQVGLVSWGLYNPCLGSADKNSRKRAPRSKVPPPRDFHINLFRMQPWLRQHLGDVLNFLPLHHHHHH

[4] = target: T4, recombinant cynomolgus (cyno) complement C2 (XP_005553508.1), C-terminal 6His-tag, made in house (CHO cell … (cynomolgus monkey (Macaca fascicularis), UniProt P06681 21-752 (human entry))); experiment: ELISA on cyno C2, OD450nm against log Ab conc. (nmol/L)
T4 construct: also called cyno C2; Cyno C2
T4 chain: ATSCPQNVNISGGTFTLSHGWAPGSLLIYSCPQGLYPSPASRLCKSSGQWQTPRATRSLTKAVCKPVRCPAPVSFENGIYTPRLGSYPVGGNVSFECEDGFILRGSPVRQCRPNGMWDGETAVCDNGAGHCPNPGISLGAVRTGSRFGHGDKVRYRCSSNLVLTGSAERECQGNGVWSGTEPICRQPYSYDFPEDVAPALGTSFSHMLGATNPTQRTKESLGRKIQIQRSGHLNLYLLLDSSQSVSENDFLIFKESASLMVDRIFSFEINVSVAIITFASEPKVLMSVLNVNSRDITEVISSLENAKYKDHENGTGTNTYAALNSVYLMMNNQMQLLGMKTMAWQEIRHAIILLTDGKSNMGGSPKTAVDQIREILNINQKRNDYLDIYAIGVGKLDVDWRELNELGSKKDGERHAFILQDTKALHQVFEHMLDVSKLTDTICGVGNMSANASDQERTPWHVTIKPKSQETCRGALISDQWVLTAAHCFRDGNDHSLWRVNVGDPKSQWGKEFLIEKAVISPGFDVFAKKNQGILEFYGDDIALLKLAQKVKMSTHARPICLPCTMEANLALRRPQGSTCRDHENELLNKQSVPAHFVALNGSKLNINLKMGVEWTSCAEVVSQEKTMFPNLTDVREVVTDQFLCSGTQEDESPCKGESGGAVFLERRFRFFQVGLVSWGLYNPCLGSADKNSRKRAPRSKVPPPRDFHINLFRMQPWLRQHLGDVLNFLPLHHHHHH

EC50 [1]: 0.042 nM
EC50 [2]: 0.0457 nM
EC50 [3]: 0.165 nM
binding result [4]: binds
B1: anti-C2 antibody 149.46 (antibody, IgG4, V domains shown)
VH: QVQLQQSGPGLVKPSQPLSLTCAISGDSVSSNSATWSWIRQSPSRGLEWLGRTYYRSKWYHDYAVFVKSRMTINPDTSKNQFSLQLNSVTPEDTAVYYCARGGMPASDIPHFDNWGQGILVTVSS
VL: SYELTQPPSLSVSPGQTASITCSGHKLGDKYACWYQQKPGQSPVLVIYQDNKRPSGIPERFSGSNSGNTATLTISGTQALDEADYYCQAWDSITYVFGTGTKVTVL
notes: Recombinant

Reference: patent publication US20250376539A1 (KIRA PHARMACEUTICALS SUZHOU, published 2025)
